Laboratory results from patent US20220218614A1, “IONIZABLE CATIONIC LIPIDS AND LIPID NANOPARTICLES, AND METHODS OF SYNTHESIS AND USE THEREOF” (Tidal Therapeutics, Inc., priority 2020, published 2022).

Columns and labels:
Type in all cases: cell-based
[1] = tested on: primary human T cells; test: LNP transfection of co-cultured human T cells and NK cells: T cells; conditions: Lipid 8 LNP, 2.5 ug/mL mRNA, 24 hours
Method: Primary human T cells were purified using magnetic-based CD3 negative selection. 20 million purified T cells were activated using anti-CD3/anti-CD28 coated beads for 48 hours in media containing 100 IU/mL IL-2. Following activation, activation beads were removed, and T cells were expanded for an additional 48 hours in media containing 100 IU/mL IL-2. After the expansion period, T cells were concentrated to 1 million cells/mL in preparation for co-transfection with primary human NK cells.
LNPs were prepared using the mixing process described in Example 6, the buffer exchange process described in Example 25. […]
(§1) 24 hours after LNP transfection, cell culture media was aspirated from T cell and NK cell co-cultures after centrifugation. […] Following acquisition by flow cytometry, T cells and NK cells were analyzed independently using FlowJo (flow cytometry analysis software). In either CD3+ cells (T cells) or CD56+ cells (NK cells), the frequency of GFP positive events relative to GFP negative events was calculated (FIG. 64A). Additionally, the overall fluorescence of GFP was quantified by assessment of mean fluorescence intensity (MFI, FIG. 64B). […] Together, these metrics enabled quantification of LNP transfection efficiency of all targeted LNPs tested in primary human T cell and NK cell co-cultures.

[2] = tested on: human whole blood; test: Whole blood transfection of immune cells with Fab targeted mRNA LNPs; conditions: Lipid 8 LNP, 2.5 μg/mL mCherry mRNA, 24 hours
Method: Venous blood from healthy volunteers was anti-coagulated in heparin tubes (BD Biosciences #367526) and seeded at 50 μL in a 96-well round-bottom plate. Transfection of whole blood was carried out simply by adding nanoparticles containing 5 μg/mL mRNA to the cells and co-culturing at 37° C. until the time of analysis. To assess transfection efficiency, cells were analyzed 24-hours post-transfection by flow cytometry. LNPs used (with and without post-inserted targets) at 2.5 μg/mL:RDM073.23. Cells obtained from human blood were analyzed by flow cytometry. Prior to the analysis of whole blood transfection efficiency, red blood cells were lysed twice with VersaLyse Lysing Solution (Beckman Coulter #A09777) for 10 minutes at room temperature. […]
Compensation for each fluorochrome was performed in the multicolor flow panels using positive and negative compensation beads. Fluorescence minus one (FMO) samples and unstained controls were included to determine the level of background fluorescence and to set the gates for the negative cell populations versus the positive cell populations.
All samples were acquired on a BD LSRFortessa X-20 (BD Biosciences) running […] software (Becton Dickinson). All data collected were analyzed using FlowJo 10.7.1 software and GraphPad Prism version 9.0. […]

[3] = tested on: primary human NK cells; test: LNP transfection of co-cultured human T cells and NK cells: NK cells; conditions: Lipid 8 LNP, 2.5 ug/mL mRNA, 24 hours
Method: CD3-depleted PBMCs were purified using magnetic-based CD3 positive selection and retaining of the negative fraction. 20 million CD3 depleted PBMCs were added to 1 well of a 6 well GREX plate in media containing 10 ng/mL IL-15 for 7 days. On day 7, each well was split in 2 and cells were cultured further in media containing 10 ng/mL IL-15 for an additional 7 days. On day 14, NK cells were concentrated to 1 million cells/mL in preparation for co-transfection with primary human T cells.
LNPs were prepared using the mixing process described in Example 6, the buffer exchange process described in Example 25. The LNPs were formulated using eGFP encoding mRNA (TriLink Biotechnologies, California, US), Lipid 8 as the ionizable lipid, and labeled with 0.01 mol % DiIC18(5)-DS (Invitrogen, Massachusetts, US). Fab-lipid conjugates generated from methods described in Example 4 while generation of Nb-conjugated differed in using 1:1:4 Nb:DSPE-SKPEG-maileimide:DSPE-2KPEG-OCH3 and a 50 kD UF membrane (Millipore Corp, Billerica, Mass. USA) for separation of Nb-conjugate from free Nb. Using methods similar to Example 12, conjugated Fabs and conjugated Nb were post-inserted at various densities (Table 41) into LNPs containing Lipid 8 and GFP mRNA with DiI dye. […]. […]
as §1

B1: mutOKT8: non-functional mutated OKT8 Fab, SEQ ID NO: 22 and 23 (antibody)
heavy: QVQLVQSGAEDKKPGASVKVSCKASGFNIKDTYIHWVRQAPGQGLEWMGRIDPANDNTLYASKFQGRVTITADTSSNTAYMELSSLRSEDTAVYYCGRGAGAYVFDHWGQGTTVTVSSASTKGPSVFPLAPSSKSTSGGTAALGCLVKDYFPEPVTVSWNSGALTSGVHTFPAVLQSSGLYSLSSVVTVPSSSLGTQTYICNVNHKPSNTKVDKKVEPKSSDKTHTC
light: DIVMTQSPSSLSASVGDRVTITCRTSRSISAALAWYQEKPGKAPKLLIYSGSTLQSGVPSRFSGSGSGTDFTLTISSLQPEDFATYYCQQHNENPLTFGQGTKVEIKRTVAAPSVFIFPPSDEQLKSGTASVVCLLNNFYPREAKVQWKVDNALQSGNSQESVTEQDSKDSTYSLSSTLTLSKADYEKHKVYACEVTHQGLSSPVTKSFNRGES
transfection of T cells in T/NK co-culture (% GFP, GFP MFI, DiI), in words [1]: high % DiI and % GFP
% mCherry+ cells (transfection) in whole blood, in words [2]: did not exhibit transfection of any of the immune cell types
transfection of NK cells in T/NK co-culture (% GFP, GFP MFI, DiI), in words [3]: high % DiI and % GFP
